Test results published in patent US20230220085A1 (BRIGHAM AND WOMEN S HOSPITAL, published 2023).

What was measured:
[1] = target: T1, Recombinant human ALK1-Fc (ALK1 extracellular domain-IgG Fc fusion protein) (human, UniProt P37023 22-118); assay: BLI (Octet Red), FIG. 2A
T1 construct: extracellular domain; Bought reagent (R&D #370AL is named for the luciferase assay); also called immobilized ALK1; ACVRL1; not shown: IgG Fc of the bought fusion protein (captured on anti-human IgG Fc sensors)
Protocol: (§1) To characterize the biochemical interactions of the scFv clones with recombinant human ALK1 and BMPR2 receptors, we used Bio-Layer Interferometry (Octet Red 384, ForteBio). Receptors, expressed as IgG Fc fusion proteins (i.e., ALK1-Fc, and BMPR2-Fc) were immobilized onto Anti-Human IgG Fc Capture Sensors (ForteBio, #18-0015) at a concentration of 10 µg/mL in an equilibration buffer of HEPES 20 mM (GIBCO #15630), 0.05% Tween-20 (Promega #H5151), and Imidazole 25 mM (SIGMA #10250) in PBS. All the clones were tested at different ranges of concentration in equilibration buffer: 50 nM, 100 nM, 200 nM, and 400 nM. The ForteBio program methodology was set as follows: Baseline equilibration of 60 s, loading time of 60 s, washing time of 120 s, association time of 300 s, and dissociation time of 600 s. The binding kinetics were analyzed using the ForteBio data analysis software.
(§2) Bio-Layer Interferometry was used to determine the affinities of scFv clones for human BMPR2 and ALK1 receptors. The binding kinetics of scFv clones ALK1.3 (FIG. 1A) and ALK1.8 (FIG. 1B) versus immobilized ALK1; and BMPR2.12 (FIG. 1C) and BMPR2.23 (FIG. 1D) against BMPR2 are shown.

[2] = target: T2, Recombinant human BMPR2-Fc (BMPR2 extracellular domain-IgG Fc fusion protein) (human, UniProt Q13873 27-150); assay: BLI, immobilized BMPR2, FIG. 4C
T2 construct: extracellular domain; also called immobilized BMPR2; BMPRII; not shown: IgG Fc of the fusion protein (captured on anti-human IgG Fc sensors)
T2 sequence (looked up): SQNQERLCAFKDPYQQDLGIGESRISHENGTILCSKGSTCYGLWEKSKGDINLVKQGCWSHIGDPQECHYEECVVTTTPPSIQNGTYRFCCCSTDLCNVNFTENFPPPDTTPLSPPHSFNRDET
Protocol: as §1

[3] = target: T1, Recombinant human ALK1-Fc (ALK1 …); assay: BLI (Octet Red), immobilized ALK1, FIG. 2A
Protocol: as §1, §2

[4] = target: T2, Recombinant human BMPR2-Fc (BMPR2 …); assay: BLI (Octet Red), FIG. 2B
Protocol: as §1, §2

[5] = target: T1, Recombinant human ALK1-Fc (ALK1 …); assay: BLI, FIG. 4B
Protocol: as §1

[6] = target: T1, Recombinant human ALK1-Fc (ALK1 …); assay: BLI, immobilized ALK1, FIG. 4B
Protocol: as §1

[7] = target: T2, Recombinant human BMPR2-Fc (BMPR2 …); assay: BLI, FIG. 4C
Protocol: as §1

[8] = target: T1, Recombinant human ALK1-Fc (ALK1 …); assay: BLI, immobilized ALK1, FIG. 4D
Protocol: as §1

T1 sequence (P37023 22-118): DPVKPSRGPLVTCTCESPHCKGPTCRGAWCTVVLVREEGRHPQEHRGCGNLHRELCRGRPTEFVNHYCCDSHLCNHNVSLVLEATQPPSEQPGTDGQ

B1: scFv clone ALK1.3 (anti-ACVRL1/ALK1) (scFv)
scFv: QSALTQPASVSGSPGQSITISCAGTSSDVGTYNYVSWYQQHPGKAPKLMIYDVSKRPSGVPDRFSGSKSGNTASLTISGLQAEDEADYYCYSYTTSSTWVFGGGTKVTVLGEGKSSGSGSESKASQVQLQESGPGLLKPSQTLSLTCTVSGDSIGSGDYYWSWIRQPPGKGLEWIGYSYHTGSTDYNPSLKSRVSISVDRSKNQFSLKLRSVTAADTAVYYCARDYYGYLGYWGQGTLVTVSS
notes: Human scFv from phage display, VL-linker-VH, expressed in E. coli
binding result [1]: binds | binding result [2]: no binding

B2: scFv clone BMPR2.12 (anti-BMPR2/BMPRII) (scFv)
scFv: QSALTQPASVSGSPGQSITISCTGTSSDVGGYKSVSWYQQHPGKAPKLMIYDVSNRPSGVSDRFSGSKSGNTASLTISGLQAEDEADYYCSSYTSSSSLWVFGGGTKLTVLGEGKSSGSGSESKASQVQLVQSGAEVKKPGSSVKVSCKASGGTFSSYAISWVRQAPGQGLEWMGRIIPILGIANYAQKFQGRVTMTEDTSTDTAYMELSSLRSEDTAVYYCATDLWGVGADWGQGTLVTVSS
notes: as for B1
binding result [3]: no binding | binding result [4]: binds

B3: Biotinylated scFv ALK1.3 (scFv)
scFv: B1 scFv
modifications: biotinylated (DSB-X Biotin Protein Labeling Kit; average 1.5-2 sites per molecule; sites not stated)
notes: ALK1.3 scFv after low substitution ratio biotinylation; also called ALK1.3-Bio
binding result [5]: binds | binding result [2]: no binding

B4: Biotinylated scFv BMPR2.12 (scFv)
scFv: B2 scFv
modifications: biotinylated (DSB-X Biotin Protein Labeling Kit; average 1.5-2 sites per molecule; sites not stated)
notes: BMPR2.12 scFv after low substitution ratio biotinylation; also called BMPR2.12-Bio
binding result [6]: no binding | binding result [7]: binds

B5: scFv clone BMPR2.23 (anti-BMPR2/BMPRII) (scFv)
scFv: QAVLTQPSSLSASPGASASLTCTLHSGINVATYRIYWYQQKPGSPPQYLLTYKSDLDKHQGSGVPSRFSGSKDASANAGILLISGLQSDDEGDYYCLIWHDYVWYFGGGTKVTVLGEGKSSGSGSESKASEVQLLESGGGLVQPGRSLRLSCAASGFTFDDYAMHWVRQAPGKGLEWVSGISWNSGSIGYADSVKGRFTISRDNAKNSLYLQMNSLRAEDTALYYCAKGGWGSSTHYYYGMDVWGQGTTVTVSS
binding result [8]: no binding

B6: Biotinylated scFv BMPR2.23 (scFv)
scFv: B5 scFv
modifications: biotinylated (DSB-X Biotin Protein Labeling Kit; average 1.5-2 sites per molecule; sites not stated)
notes: BMPR2.23 scFv after biotinylation
binding result [8]: no binding
